Reference: publication PMC4038622

Columns and labels:
[1] = biological target: VP4 spike protein, unprocessed precursor, rotavirus strain SA11 (clone SA11-C4111) (simian rotavirus strain SA11); test: cryo-EM structure; single-particle three-dimensional reconstruction with icosahedral symmetry of vitrified purified virions (NTR-TLP and TR-TLP of strains SA11 and OSU), 200 kV; virions assembled in infected MA104 cells and purified in CsCl gradients; 11.9-15.4 Å (FSC 0.3)
[2] = biological target: VP4 spike protein, unprocessed precursor, porcine rotavirus strain OSU (clone OSU-C5111) (porcine rotavirus strain OSU) (UniProt P11114); test: as above

| Substance | stoichiometry N [1] | stoichiometry N [2] |
| --- | --- | --- |
| VP4 spike protein, unprocessed precursor, rotavirus strain SA11 (clone SA11-C4111) (natural protein) | 3 |  |
| VP4 spike protein, unprocessed precursor, porcine rotavirus strain OSU (clone OSU-C5111) (from UniProt P11114 1-776) (natural protein) |  | 3 |
